From PMC5809530, “Resculpting the binding pocket of APC superfamily LeuT-fold amino acid transporters” (Cellular and Molecular Life Sciences: CMLS, 2017)

B1: PAT2 (SLC36A2) (Rattus norvegicus; F159I) (protein)
chain: MSVTKSAGSPQVAATVKLDLVSFPESAKKVQSQDPNPVNGSSSESSEKTKGITGFQTLVHLVKGNMGTGILGLPLAVKNAGILMGPLSLLVMGLIACHCMHILVRCAQRFCHRLNKPFMDYGDTVMHGLASSPNTWLQSHAHWGRHAVSFFLIVTQLGICCVYIVFLADNLKQVVEAVNSTTISCHKNETVVLTPTIDSRLYMLAFLPVLGLLVFIRNLRVLTIFSLLANVSMLVSLVIIGQYIIQGIPDPSQLPLVASWKTYPLFFGTAIFSFESIGVVLPLENKMKDARRFPTILSLGMSIITTLYIAIGALGYLRFGDDIKASITLNLPNCWLYQSVKLLYVVGILCTHALQFYVPAEIIIPLAVSQVSKRWALPVDLSIRLALVCVTCMLAILIPRLDLVLSLVGSVSSSALALIIPPLLEVTTYYGEGMSPLTITKDALISILGFMGFVVGTYQALDELIRSGNSLPLSNSTMFIQ
B2: CG1139 (Drosophila melanogaster) (protein)
chain: MNDDIKTVTVYPTTLELTTPTKSANGSNDDYDPHQHRELKNPTTNFQTFAHFLKASVGTGVLAMPSAFAHAGYVNGTLLTLIIGSLALYCLHILIKCMYILCKRQRVPYVSFSQAMNLGLKQGPPWLRCLAPIAVPFVDGFLAFYHFGICCVYVVFIAESIKQLVDEYLVVWDVRIHMCIIIVPLLLIYSIKNLKLLAPFSSAANLLLLVGFGIILYYIFEELPPLSERDPFVAAGKLPTFFGTVLFALEAVGVILAIEENMATPKSFVGPCGILNSGMSIVLGLYVLLGFFGYWKYGNESEGSITLNIPQSEIPAQVVKVFFAITTWISYALQGYVTAHILWDKYLAKRFKETRQTFYELIFRAIIVLLTFGCAVAIPDLSVFLSLVGSFCLSILGLIFPVLLQICVQYTEGYGPFRIKLIINLLLLCFGIFGGVVGTYVSILDIIAVYK

What was measured:
[1] = substrate: N[C@@H](CO)C(=O)O; test: cells, lysate or membranes; conditions: transport Km, Na+-free, pH 5.5, about 22 °C, labelled compound, 0.01-20 mM serine
[2] = substrate: O=C(O)[C@@H]1CCCN1; test: cells, lysate or membranes; conditions: transport Km, Na+-free, pH 5.5, about 22 °C, labelled compound, a second Km was measured by TEVC at -60 mV

Protein	Km [1] [µM]	Km [2] [µM]
B1	823 ± 202	–
B2	1310 ± 120	1030 ± 180
